# Results taken from patent US20190016806A1 (BPS BIOSCIENCE, published 2019).
# B1: BPS hAb-10D3 humanized anti-PD-1 neutralizing antibody (antibody, V domains shown)
# VH: QVQLQESGPGLVKPSQTLSLTCSVSGYSITSGYFWNWIRQFPGNKLEWIGYISYDGSKNYNPSLKNRVTIIRDTSKNQFSLKLNSVTAEDTATYYCVRGGLPVMDYWGQGTSVTVSS
# VL: DIVMTQSPSSLALSVGEKATIQCKSSQSLLDDNNQKNYLAWYQQKPGQPPKLLIFFASTRESGVPDRFIGSGSGTDFTLTISSLQAEDLADYYCQQHYTTPYTFGGGTNVEIK
# Target: PD-1 expressed on Jurkat T cells (NFAT luciferase reporter) (human, UniProt Q15116 25-288)
# Sequence (Q15116 25-288): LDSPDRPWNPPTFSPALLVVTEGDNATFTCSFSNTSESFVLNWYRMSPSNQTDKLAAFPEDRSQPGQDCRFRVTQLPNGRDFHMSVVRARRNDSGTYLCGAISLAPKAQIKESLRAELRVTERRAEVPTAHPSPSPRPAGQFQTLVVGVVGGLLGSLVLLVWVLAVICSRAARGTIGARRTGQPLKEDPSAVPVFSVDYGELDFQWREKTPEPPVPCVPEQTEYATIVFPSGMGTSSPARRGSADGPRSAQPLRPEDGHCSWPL
# Assay: cell-based or functional assay
binder,measurement,value
B1,EC50 of inhibition of PD-1 signaling (NFAT luciferase reporter in Jurkat T cells with PD-L1-expressing HEK293 cells),0.38 µg/mL
